Each block holds one substance with its values, some of them ahead of it. Non-standard residues stand in square brackets, D forms with d. No end group written: not given here. AEEA = NCCOCCOCC(=O)O
Legend:
collagen I = biological target: T1, collagen I (Rattus norvegicus, UniProt P02454+P02466); assay: Surface binding of biotinylated molecules to collagen I (streptavidin-HRP); details: for collagen I binding after incubation (deterioration of binding activity over time): after 2 weeks in 1% BSA at room temperature
T1 construct: rat tail collagen I (Corning); purchased Corning; host or cells: rat tail (tissue-extracted)
T1 sequence (P02454 152-1207 limits assumed): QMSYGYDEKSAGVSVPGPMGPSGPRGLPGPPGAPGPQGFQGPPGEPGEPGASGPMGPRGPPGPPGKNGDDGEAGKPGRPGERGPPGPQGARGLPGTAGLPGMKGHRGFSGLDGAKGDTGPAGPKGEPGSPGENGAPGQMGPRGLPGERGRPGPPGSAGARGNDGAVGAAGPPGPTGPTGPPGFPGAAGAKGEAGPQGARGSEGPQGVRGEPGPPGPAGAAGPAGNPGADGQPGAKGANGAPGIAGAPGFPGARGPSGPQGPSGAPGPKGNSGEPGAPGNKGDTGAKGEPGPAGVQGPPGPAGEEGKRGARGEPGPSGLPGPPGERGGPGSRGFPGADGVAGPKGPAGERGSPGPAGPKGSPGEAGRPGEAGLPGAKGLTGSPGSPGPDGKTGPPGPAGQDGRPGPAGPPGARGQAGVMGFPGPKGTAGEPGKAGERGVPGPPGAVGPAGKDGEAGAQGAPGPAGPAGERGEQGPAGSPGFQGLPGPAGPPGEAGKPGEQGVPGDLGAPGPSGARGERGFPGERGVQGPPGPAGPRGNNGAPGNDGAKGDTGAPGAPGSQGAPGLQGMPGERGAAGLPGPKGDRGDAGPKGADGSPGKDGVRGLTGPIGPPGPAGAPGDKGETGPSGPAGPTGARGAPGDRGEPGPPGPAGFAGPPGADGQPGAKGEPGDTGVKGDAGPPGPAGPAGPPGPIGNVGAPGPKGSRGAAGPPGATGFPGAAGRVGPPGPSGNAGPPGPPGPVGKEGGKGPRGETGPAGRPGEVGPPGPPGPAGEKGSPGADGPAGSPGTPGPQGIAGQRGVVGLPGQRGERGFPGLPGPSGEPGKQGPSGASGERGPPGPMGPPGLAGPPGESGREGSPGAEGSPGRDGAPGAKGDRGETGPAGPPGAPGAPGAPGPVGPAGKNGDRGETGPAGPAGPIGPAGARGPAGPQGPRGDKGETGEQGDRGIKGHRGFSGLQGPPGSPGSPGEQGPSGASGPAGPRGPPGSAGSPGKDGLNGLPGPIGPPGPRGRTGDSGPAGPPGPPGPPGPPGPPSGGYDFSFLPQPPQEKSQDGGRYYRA
T1 sequence (P02466 86-1125 limits assumed): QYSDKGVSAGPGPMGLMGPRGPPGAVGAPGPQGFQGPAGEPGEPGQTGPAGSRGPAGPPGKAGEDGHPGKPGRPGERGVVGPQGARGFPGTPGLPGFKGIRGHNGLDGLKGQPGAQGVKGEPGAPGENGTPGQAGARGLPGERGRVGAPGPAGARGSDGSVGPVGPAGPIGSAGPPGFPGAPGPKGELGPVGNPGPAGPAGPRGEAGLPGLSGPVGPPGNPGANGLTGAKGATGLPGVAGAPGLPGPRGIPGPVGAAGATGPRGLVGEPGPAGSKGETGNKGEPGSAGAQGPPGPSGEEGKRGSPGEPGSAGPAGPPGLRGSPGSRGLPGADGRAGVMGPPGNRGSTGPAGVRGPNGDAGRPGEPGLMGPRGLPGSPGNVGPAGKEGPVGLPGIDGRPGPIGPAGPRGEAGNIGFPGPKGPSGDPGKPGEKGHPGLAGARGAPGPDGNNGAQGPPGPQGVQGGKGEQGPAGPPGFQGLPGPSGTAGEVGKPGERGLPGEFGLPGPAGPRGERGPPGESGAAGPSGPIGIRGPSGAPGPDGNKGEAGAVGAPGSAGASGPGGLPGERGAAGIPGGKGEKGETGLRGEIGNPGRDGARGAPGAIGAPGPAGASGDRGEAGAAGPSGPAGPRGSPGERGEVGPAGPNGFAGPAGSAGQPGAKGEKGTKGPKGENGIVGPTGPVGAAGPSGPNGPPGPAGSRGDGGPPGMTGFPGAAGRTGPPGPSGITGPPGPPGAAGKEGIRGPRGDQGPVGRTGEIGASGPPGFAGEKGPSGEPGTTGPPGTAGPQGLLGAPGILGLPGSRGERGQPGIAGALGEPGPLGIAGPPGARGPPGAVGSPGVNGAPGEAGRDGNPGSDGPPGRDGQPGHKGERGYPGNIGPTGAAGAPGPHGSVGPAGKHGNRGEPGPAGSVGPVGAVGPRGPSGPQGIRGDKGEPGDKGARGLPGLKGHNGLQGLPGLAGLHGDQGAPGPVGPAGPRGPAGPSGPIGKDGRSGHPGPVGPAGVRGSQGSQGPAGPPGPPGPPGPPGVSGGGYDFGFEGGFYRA
Experimental: (§1) High-binding 96-well plates (Corning) were coated with 50 μg/mL rat tail collagen I (Corning) at 4° C. overnight or 2% reduced growth factor Matrigel (Corning #354230) in basal EBM media for 30 minutes at 37° C. and rinsed 3× with PBS before blocking non-specific binding with 1% Bovine Serum Albumin (BSA) for 1 hour at room temperature. For fibrinogen surfaces, a fibrinogen coating solution of ˜2.75 mg/mL fibrinogen (Sigma) and 5.5 μg/mL aprotinin (Sigma) was incubated at 4° C. overnight in high-binding plates. Biotinylated samples dissolved in 1% BSA were allowed to bind to the surface for 30 minutes at 37° C. on a plate shaker. After 3 washes with PBS, wells were incubated with 1:200 streptavidin-HRP in 1% BSA, rinsed 3× with PBS, developed with a 1:1 A to B color solution for 20 minutes, stopped with the addition 2N H2SO4, and read on a Spectramax M5 platereader for absorbance at 450 nm with 540 nm correction.
(§2) The ability of DS-SILY4 to bind to various protein surface coatings was investigated using streptavidin-HRP detection of bound biotinylated DS-SILY4 molecules. Here we studied collagen and fibrinogen binding properties of the proteoglycan mimics since this proposed therapy is designed to target angiogenic activity to the wound site by tethering to extracellular matrix. Using standard surface coating procedures for collagen (50 μg/mL) and matrigel (2%), ˜7.5 μg/cm^2 rat tail collagen I and ˜28 μg/cm^2 matrigel were allowed to bind to a high bind plate.

[1] = system: matrigel (collagen IV/laminin); assay: Surface binding of biotinylated molecules to matrigel (streptavidin-HRP); details: for matrigel binding after incubation (deterioration of binding activity over time): after 2 weeks in 1% BSA at room temperature; for matrigel binding affinity (relative): comparison between molecules
Experimental: as §1, §2

fibrinogen = biological target: T2, fibrinogen (Homo sapiens, UniProt P02671+P02675+P02679); assay: Surface binding of biotinylated molecules to fibrinogen (streptavidin-HRP); details: biotinylated molecule, absorbance
T2 construct: purchased Sigma
T2 sequence (P02671 20-629 limits assumed): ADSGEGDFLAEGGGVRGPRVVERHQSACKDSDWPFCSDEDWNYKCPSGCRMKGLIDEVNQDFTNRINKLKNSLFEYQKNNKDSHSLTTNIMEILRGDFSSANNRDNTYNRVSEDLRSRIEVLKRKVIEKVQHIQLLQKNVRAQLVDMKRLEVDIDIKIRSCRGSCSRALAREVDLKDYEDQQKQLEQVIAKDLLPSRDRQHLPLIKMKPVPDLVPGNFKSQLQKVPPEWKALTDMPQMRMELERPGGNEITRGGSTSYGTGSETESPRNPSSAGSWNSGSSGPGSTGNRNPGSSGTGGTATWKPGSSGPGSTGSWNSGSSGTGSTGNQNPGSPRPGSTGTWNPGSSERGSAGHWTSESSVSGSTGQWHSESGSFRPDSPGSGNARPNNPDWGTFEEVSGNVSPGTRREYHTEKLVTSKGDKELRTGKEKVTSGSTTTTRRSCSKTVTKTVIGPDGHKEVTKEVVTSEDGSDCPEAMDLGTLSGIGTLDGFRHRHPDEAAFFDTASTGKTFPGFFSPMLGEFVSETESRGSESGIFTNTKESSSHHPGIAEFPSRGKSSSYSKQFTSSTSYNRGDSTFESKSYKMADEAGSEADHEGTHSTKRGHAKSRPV
T2 sequence (P02675 31-491): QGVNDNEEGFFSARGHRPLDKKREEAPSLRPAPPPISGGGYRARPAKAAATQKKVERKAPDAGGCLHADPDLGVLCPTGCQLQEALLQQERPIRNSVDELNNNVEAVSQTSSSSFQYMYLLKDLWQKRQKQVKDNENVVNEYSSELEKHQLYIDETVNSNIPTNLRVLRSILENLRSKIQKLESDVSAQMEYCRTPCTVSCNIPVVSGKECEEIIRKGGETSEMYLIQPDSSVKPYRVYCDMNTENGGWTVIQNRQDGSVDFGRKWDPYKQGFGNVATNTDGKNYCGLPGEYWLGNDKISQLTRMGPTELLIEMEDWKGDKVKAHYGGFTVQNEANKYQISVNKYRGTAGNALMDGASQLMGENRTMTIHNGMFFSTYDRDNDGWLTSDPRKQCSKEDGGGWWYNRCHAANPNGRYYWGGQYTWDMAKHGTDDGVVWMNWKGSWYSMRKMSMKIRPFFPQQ
T2 sequence (P02679 27-433 limits assumed): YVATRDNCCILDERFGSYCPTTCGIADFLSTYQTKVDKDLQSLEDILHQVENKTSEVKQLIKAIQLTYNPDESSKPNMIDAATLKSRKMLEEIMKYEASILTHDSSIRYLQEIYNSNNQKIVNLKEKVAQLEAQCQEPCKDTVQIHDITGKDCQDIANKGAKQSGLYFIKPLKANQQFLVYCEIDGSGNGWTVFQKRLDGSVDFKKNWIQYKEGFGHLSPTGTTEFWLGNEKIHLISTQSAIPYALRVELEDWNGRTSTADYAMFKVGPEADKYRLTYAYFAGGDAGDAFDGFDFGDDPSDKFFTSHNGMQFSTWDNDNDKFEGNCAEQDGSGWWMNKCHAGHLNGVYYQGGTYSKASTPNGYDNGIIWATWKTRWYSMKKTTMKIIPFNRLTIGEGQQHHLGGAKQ
Experimental: as §1
as §2, with “Using standard surface coating procedures for collagen (50 μg/mL) and matrigel (2%), ˜7.5 μg/cm^2 rat tail collagen I and ˜28 μg/cm^2 matrigel were allowed to bind to a high bind plate.” left out

HMVEC [2] = assay: HMVEC attachment to surface-bound molecules (alamarBlue); type: cell-based, human; details: low cell densities, both 1 μM and 10 μM surface treatments
Experimental: (§3) 50 μL, treatments dissolved in 1% BSA in PBS were added to a Biocoat Collagen I 96-well plate (Corning) and incubated for 30 minutes at 37° C. before washing 3 times with PBS to remove unbound treatment. […] To evaluate initial attachment, media was aspirated 5-8 hours after seeding and exchanged with alamarBlue® cell viability reagent (1:10, 110 μL/well, Molecular Probes) and incubated for 2.5 hours at 37° C. according to the manufacturers' protocol. 100 μL from each well was pipetted into a new plate and assayed for fluorescence at 560 nm excitation and 590 nm emission. Remaining reagent was aspirated and replaced with fresh media and the alamarBlue® viability assay was performed every 2 days thereafter for 1 week. To control for initial differences in HMVEC attachment, proliferation data is presented as the alamarBlue® fluorescence signal normalized to the signal at 8 hours.

HMVEC [3] = assay: HMVEC proliferation in response to surface-bound molecules (alamarBlue); type: cell-based, human
Experimental: as §3
Both soluble and bound forms of molecules would be present in a dynamic equilibrium in this initial experimental design and the two forms may produce differing effects, and thus we sought to investigate the effects of bound molecules alone. Furthermore, the bioactivity of a collagen-bound form would more directly reflect the application of a targeted pro-angiogenic therapy in a chronic wound. […]

[4] = system: chick chorioallantoic membrane; assay: Ex ovo CAM assay, vascular invasion into collagen gels; type: in vivo; details: both 10 μM and 20 μM embedded gels, vs blank controls
Experimental: For experiments studying vascular invasion into collagen gels, 30 μL collagen I gels with an embedded 3 mm×3 mm nylon mesh (Fisher) were used. 4-5 gels were placed on each CAM, with 2-3 treatment gels of the same type and 2 blank gels as internal controls to correct for embryo variability. In some embryos, the nylon meshes were dyed to improve visualization of the mesh and vessels growing into the gel. Large (4 cm×10 cm) nylon meshes were dyed by reacting in 226 mL of a 77 mM acetic acid (Sigma) solution with 10 drops of green food coloring (McCormick) or 250 μL of 3 mg/mL Evans blue (Alfa Aesar) at 121° C. for 15 minutes in an autoclave, and then cut to 3 mm×3 mm squares for embedding. Gels were imaged daily through a Dino-Eye AM7025X camera installed on a stereomicroscope; for images more than 2 days after gel implantation, 0.25 mL PBS was pipetted on top of gels to help visualize vessels. […]
In an attempt to better visualize new vasculature invading the implanted collagen gels, we injected ˜100 μL 1 mg/mL high molecular weight fluorescent dextran (70 kDa RITC-dextran) into the CAM vessels 7 days after transplantation, cut out integrated collagen gels and surrounding membrane, and imaged with fluorescence microscopy. […]

THP-1 monocytes = assay: Attachment of THP-1 monocytes to peptide-treated surfaces; type: cell-based; details: biotin-peptide on Avidin-coated wells
From the text: (§4) FIG. 33. Attachment of cells and platelets to LXW7 and GRGD (SEQ ID NO: 2) treated surfaces. (A) Images of attached HCAECs (left panels), THP-1 monocytes (middle panels) and platelets (right panels) on surfaces treated by D-Biotin (a-c) (control), LXW7 (d-f) or GRGD (SEQ ID NO: 2) (g-i). Scale bars in a, b, d, e, g and h are 50 μm. Scale bars in c, f and i are 20 μm. (B) The number of cells or platelets attached on different treated surfaces were quantified and statistical analyses were performed. Data were expressed as mean±standard deviation: **p<0.01 (n=4).
(§5) Using primary artery-derived ECs and blood-derived EPCs as living probes to screen One-Bead-One-Compound (OBOC) combinatorial peptide libraries, several high-affinity binding ligands against the αvβ3 integrin on the surface of EPCs/ECs were identified. […] The LXW7 peptide, when grafted to surfaces, supports adhesion and spreading of EPCs and human coronary ECs, but not platelets or monocytes. […] After washing with PBS and blocking with 1% BSA wells were ready for cell attachment with 5×10^4 HCAECs or THP-1 monocytes suspended in the respective maintenance medium, or freshly isolated platelets at a density of 5×10^7 platelets/cm^2 incubated for 16 h at 37° C., 5% CO2. […] Quantification of images was performed using the Image J software (NIH).

platelets = assay: Attachment of platelets to peptide-treated surfaces; type: cell-based; details: biotin-peptide on Avidin-coated wells
From the text: as §4, §5

Substance: (peg2V)2-DS-SILY4: pro-angiogenic decorin mimic, 2 peg2V and 4 SILY per DS (peptide 1 KLTWQELYQLKYKGI[AEEA][AEEA]GSG; peptide 2 RRANAALKAGELYKSILYGSG; also: conjugated to dermatan sulfate: 2 peg2V and 4 SILY per DS, attachment not given here)
collagen I binding after incubation (deterioration of binding activity over time) (collagen I): higher concentrations are needed to achieve the same binding
collagen I affinity (relative) (collagen I; comparison between molecules): highest collagen I and matrigel affinities
matrigel binding after incubation (deterioration of binding activity over time) [1]: higher concentrations are needed to achieve the same binding
matrigel binding affinity (relative) [1]: highest collagen I and matrigel affinities

matrigel binding affinity (relative) [1]: similar
Substance: DS-(peg2V)2: dermatan sulfate with 2 peg2V peptides per DS (KLTWQELYQLKYKGI[AEEA][AEEA]GSG; also: conjugated to dermatan sulfate, 2 peg2V per DS, attachment not given here)
collagen I affinity (relative) (collagen I; comparison between molecules): higher affinity for collagen I than DS-SILY4
collagen I binding capacity (relative) (collagen I; comparison between molecules): highest collagen I binding capacity of all the molecules studied

binding capacity to collagen I (collagen I; biotinylated molecule, absorbance): 1.6 AU
binding capacity to collagen IV/laminin ([1]; biotinylated molecule, matrigel coating, absorbance): 1.1 AU
binding capacity to fibrinogen (fibrinogen): 0.30 AU
Substance: DS-SILY4: decorin mimic composed of a dermatan sulfate backbone and 4 SILY substitutions per DS (RRANAALKAGELYKSILYGSG; also: conjugated to dermatan sulfate, 4 SILY per DS, attachment not given here)
collagen I binding after incubation (deterioration of binding activity over time) (collagen I): this shift was also observed
matrigel binding after incubation (deterioration of binding activity over time) [1]: increased matrigel binding capacity after the 2 week incubation
decrease in HMVEC attachment compared to a BSA blocked collagen surface (HMVEC [2]): 7%
endothelial proliferation vs untreated collagen (HMVEC [3]; 1 μM surface treatment): only statistically significant over no treatment when compared in media lacking VEGF
endothelial proliferation vs untreated collagen (HMVEC [3]; 10 μM surface treatment): significantly improved proliferation in media with and without VEGF
gel vascularity / vascularized gel area [4]: very slight increase in gel vascularity that was not statistically significant over the blank controls

Substance: GRGD [RGD peptide, reference compound]
monocyte binding to treated surface (THP-1 monocytes): generally supported monocyte and platelet binding
platelet binding to treated surface (platelets): generally supported monocyte and platelet binding

From patent publication US12485182B2, “Proteoglycan mimetics for enhanced wound healing, angiogenesis, and vascular repair” (The Regents of the University of California, priority 2018, dated 2025)
